Where “and” joins values, the source holds several entries; their conditions need not be identical. Identical values can stand only once.
T1: human prolactin receptor (PRLR) on cells (human, UniProt P16471 25-622)
T1 sequence (looked up): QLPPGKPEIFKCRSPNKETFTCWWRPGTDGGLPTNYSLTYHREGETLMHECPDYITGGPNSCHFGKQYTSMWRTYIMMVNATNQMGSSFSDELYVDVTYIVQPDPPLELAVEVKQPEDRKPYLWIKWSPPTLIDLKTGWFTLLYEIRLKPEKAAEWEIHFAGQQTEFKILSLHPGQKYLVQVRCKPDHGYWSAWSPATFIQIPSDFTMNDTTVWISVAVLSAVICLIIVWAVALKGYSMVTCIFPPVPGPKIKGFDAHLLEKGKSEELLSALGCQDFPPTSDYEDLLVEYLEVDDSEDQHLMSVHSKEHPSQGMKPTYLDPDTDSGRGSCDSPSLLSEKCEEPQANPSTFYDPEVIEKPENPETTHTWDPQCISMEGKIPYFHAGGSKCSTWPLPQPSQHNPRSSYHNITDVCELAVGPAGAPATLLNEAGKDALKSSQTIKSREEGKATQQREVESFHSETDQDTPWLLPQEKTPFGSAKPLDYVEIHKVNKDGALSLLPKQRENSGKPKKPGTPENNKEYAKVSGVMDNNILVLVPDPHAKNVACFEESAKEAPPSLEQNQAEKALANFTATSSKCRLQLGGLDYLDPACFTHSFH

T2: rat prolactin receptor (PRLR) on Nb2 lymphoma cells (rat, UniProt P05710 20-610)
T2 construct: whole, on cells; also called rat PRLR
T2 sequence (looked up): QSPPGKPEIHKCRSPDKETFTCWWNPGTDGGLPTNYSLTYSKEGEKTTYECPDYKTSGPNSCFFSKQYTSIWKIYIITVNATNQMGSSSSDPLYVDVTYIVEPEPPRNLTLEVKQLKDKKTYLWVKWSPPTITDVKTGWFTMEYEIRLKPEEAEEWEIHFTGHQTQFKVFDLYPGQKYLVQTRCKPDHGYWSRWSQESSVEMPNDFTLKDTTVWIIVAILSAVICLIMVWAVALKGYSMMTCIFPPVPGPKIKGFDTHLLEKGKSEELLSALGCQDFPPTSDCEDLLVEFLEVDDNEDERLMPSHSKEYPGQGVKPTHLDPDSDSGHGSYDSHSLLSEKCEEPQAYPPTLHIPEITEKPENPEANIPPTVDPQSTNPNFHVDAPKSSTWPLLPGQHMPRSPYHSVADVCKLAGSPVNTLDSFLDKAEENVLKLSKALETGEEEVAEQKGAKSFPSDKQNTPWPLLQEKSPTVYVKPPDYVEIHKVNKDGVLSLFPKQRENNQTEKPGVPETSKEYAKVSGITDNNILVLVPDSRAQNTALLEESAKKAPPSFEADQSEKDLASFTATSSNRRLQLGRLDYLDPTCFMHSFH

T3: extracellular domain of human PRLR (monomeric, soluble) (human, UniProt P16471 25-234)
T3 construct: also called ECD-PRLR; ECD of PRLR
T3 sequence: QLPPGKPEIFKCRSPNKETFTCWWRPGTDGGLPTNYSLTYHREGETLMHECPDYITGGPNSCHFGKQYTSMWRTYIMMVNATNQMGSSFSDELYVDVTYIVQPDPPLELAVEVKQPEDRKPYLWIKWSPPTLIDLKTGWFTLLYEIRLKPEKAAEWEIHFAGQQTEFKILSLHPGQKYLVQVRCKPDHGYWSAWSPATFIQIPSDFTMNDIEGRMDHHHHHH

B1: 006-H07 (scFv format) (scFv, V domains shown)
VH: QVELLESGGGLVQPGGSLRLSCAASGFTFEDHGMSWVRQAPGKGLEWVSLISWDDGSNKYYADSVKGRFTISRDNSKNTLYLQMNSLRAEDTAVYYCATSLRATAFDTWGQGTLVTVSS
VL: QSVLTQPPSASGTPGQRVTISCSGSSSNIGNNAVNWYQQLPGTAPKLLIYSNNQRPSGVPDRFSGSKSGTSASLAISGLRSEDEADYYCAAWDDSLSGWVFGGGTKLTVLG
B2: 006-H07 (antibody, V domains shown)
VH: QVELLESGGGLVQPGGSLRLSCAASGFTFEDHGMSWVRQAPGKGLEWVSLISWDDGSNKYYADSVKGRFTISRDNSKNTLYLQMNSLRAEDTAVYYCATSLRATAFDTWGQGTLVTVSS
VL: not shown
notes: Tested as human IgG1
B3: 006-H08 (scFv format) (scFv, V domains shown)
VH: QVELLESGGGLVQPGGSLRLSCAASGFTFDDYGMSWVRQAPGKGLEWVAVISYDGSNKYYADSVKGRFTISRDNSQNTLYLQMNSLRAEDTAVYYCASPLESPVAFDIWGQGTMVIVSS
VL: DIVLTQPPSASGTPGQRVTISCSGSNSNIGSNPVNWYQQLPGTAPKLLIYDNNKRPSGVPDRFSGSKSGTSASLAISGLRSEDEADYYCQSYDTGLSGWVFGGGTKLTVLG
B4: 002-H06 (antibody, V domains shown)
VH: QVELLESGGGLVQPGGSLRLSCAASGFTFANYGLTWVRQAPGKGLEWVAVISFNGDKKYYADSVKGRFTISRDNSKNTLYLQMNSLRAEDTAVYYCASPLESPVAFDIWGQGTLVTVSS
VL: QSVLTQPPSASGTPGQRVTISCSGSYSNIGGNPVNWYQQLPGTAPKLLIYGNSNRPSGVPDRFSGSKSGTSASLAISGLRSEDEADYYCQSYDSSLSGSVFGGGTKLTVLG
notes: Tested as human IgG1
B5: 002-H06 (Fab format) (Fab, V domains shown)
VH: QVELLESGGGLVQPGGSLRLSCAASGFTFANYGLTWVRQAPGKGLEWVAVISFNGDKKYYADSVKGRFTISRDNSKNTLYLQMNSLRAEDTAVYYCASPLESPVAFDIWGQGTLVTVSS
VL: QSVLTQPPSASGTPGQRVTISCSGSYSNIGGNPVNWYQQLPGTAPKLLIYGNSNRPSGVPDRFSGSKSGTSASLAISGLRSEDEADYYCQSYDSSLSGSVFGGGTKLTVLG
B6: 001-E06 (antibody, V domains shown)
VH: QVELLESGGGLVQPGGSLRLSCAASGFTFSSYWMSWVRQAPGKGLEWVSSVSDTGTDTHYADSVKGRFTISRDNSKNTLYLQMNSLRAEDTAVYYCAKTPLAYSSGWYYFDYWGQGTLVTVSS
VL: DIVLTQPPSASGTPGQRVTISCSGSSSNIGSNTVNWYQQLPGTAPKLLIYRNYQRPSGVPDRFSGSKSGTSASLAISGLRSEDEADYYCQSYDSSLSGSVFGGGTKLTVLG
notes: Tested as human IgG1
B7: 001-E06 (Fab format) (Fab, V domains shown)
VH: QVELLESGGGLVQPGGSLRLSCAASGFTFSSYWMSWVRQAPGKGLEWVSSVSDTGTDTHYADSVKGRFTISRDNSKNTLYLQMNSLRAEDTAVYYCAKTPLAYSSGWYYFDYWGQGTLVTVSS
VL: DIVLTQPPSASGTPGQRVTISCSGSSSNIGSNTVNWYQQLPGTAPKLLIYRNYQRPSGVPDRFSGSKSGTSASLAISGLRSEDEADYYCQSYDSSLSGSVFGGGTKLTVLG
B8: 002-H08 (antibody, V domains shown)
VH: QVELLESGGGLVQPGGSLRLSCAASGFTFSSYGMHWVRQAPGKGLEWVSGVSWNGSRTHYADSVKGRLTISRDNSKNTLYLQMNSLRAEDTAVYYCARGGDFDYWGQGTLVTVSS
VL: QSVLTQPPSASGTPGQRVTISCSGSSSNIGSNDVYWYQQLPGTAPKLLIYDNNKRPSGVPDRFSGSKSGTSASLAISGLRSEDEADYYCQSYDSSLSGSWVFGGGTKLTVLG
notes: Tested as human IgG1
B9: 002-H08 (Fab format) (Fab, V domains shown)
VH: QVELLESGGGLVQPGGSLRLSCAASGFTFSSYGMHWVRQAPGKGLEWVSGVSWNGSRTHYADSVKGRLTISRDNSKNTLYLQMNSLRAEDTAVYYCARGGDFDYWGQGTLVTVSS
VL: QSVLTQPPSASGTPGQRVTISCSGSSSNIGSNDVYWYQQLPGTAPKLLIYDNNKRPSGVPDRFSGSKSGTSASLAISGLRSEDEADYYCQSYDSSLSGSWVFGGGTKLTVLG
B10: XHA06.983 (antibody, V domains shown)
VH: DVQLVESGGGLVQPGGSRKLSCAASGFAFSSFGMQWVRQAPEKGLEWVAYISSGSSTIYYADTVKGRFTISRDNPKNTLFLQMTSLRSEDTAMYYCVRSGRDYWGQGTSVTVSS
VL: SIVMTQTPKFLLVSAGDRVTITCKASQGVSNDVAWFQQKPGQSPKLLIYSASTRYTGVPDRLTGSGYGTDFTFTINTVQAEDLAVYFCQQDYTSPTFGGGTKLEIKR
notes: Novartis antibody (WO2008/022295)
B11: 005-C04-L2-1-47-0 (Fab, V domains shown)
VH: EVQLLESGGGLVQPGGSLRLSCAASGFTFSSYWNHWVRQAPGKGLEWVSDISRLSPYTNYADSVKGRFTISRDNSKNTLYLQMNSLRAEDTAVYYCARGLDARRMDYWGQGTLVTVTS
VL: QSVLTQPPSASGTPGQRVTISCTGSSSNIGAGYVVHWYQQLPGTAPKLLIYRNNWRPSGVPDRFSGSKSGTSASLAISGLRSEDEADYYCAAWDDSLNGWLFGGGTKLTVLG
notes: Maturated 005-C04 variant; Fab in E. coli supernatant, flag-detected
B12: 005-C04-48-1 (Fab, V domains shown)
VH: EVQLLESGGGLVQPGGSLRLSCAASGFTFSSYWNHWVRQAPGKGLEWVSDISRASSYTNYADSVKGRFTISRDNSKNTLYLQMNSLRAEDTAVYYCARGLDARRMDYWGQGTLVTVTS
VL: QSVLTQPPSASGTPGQRVTISCTGSSSNIGYGYVVHWYQQLPGTAPKLLIYRNNQRPSGVPDRFSGSKSGTSASLAISGLRSEDEADYYCAAWDDSLNGWLFGGGTKLTVLG
notes: as for B11
B13: 005-C04-L2-1-48-3 (Fab, V domains shown)
VH: EVQLLESGGGLVQPGGSLRLSCAASGFTFSSYWNHWVRQAPGKGLEWVSDISRASPYTNYADSVKGRFTISRDNSKNTLYLQMNSLRAEDTAVYYCARGLDARRMDYWGQGTLVTVTS
VL: QSVLTQPPSASGTPGQRVTISCTGSSSNIGAGYVVHWYQQLPGTAPKLLIYRNNQRQSGVPDRFSGSKSGTSASLAISGLRSEDEADYYCAAWDDSLNGWLFGGGTKLTVLG
notes: as for B11

Legend:
[1] = biological target: T1, human prolactin receptor (PRLR) on cells; assay: cell-based or functional assay
[2] = biological target: T1, human prolactin receptor (PRLR) on cells; assay: FACS on human breast cancer cell line T47D, IgG1
[3] = biological target: T2, rat prolactin receptor (PRLR) on Nb2 …; assay: FACS on rat lymphoma cell line Nb2, IgG1
[4] = biological target: T3, extracellular domain of human PRLR …; assay: SPR (Biacore), IgG1 directly immobilized, monomeric human PRLR ECD from HEK293 as analyte
[5] = biological target: T1, human prolactin receptor (PRLR) on cells; assay: cell-based or functional assay; remark: listed apart in the source
[6] = biological target: T3, extracellular domain of human PRLR …; assay: ELISA: plate coated with human PRLR extracellular domain, Fab-containing E. coli supernatant, anti-flag-HRP, Amplex Red
Description: 96 well microtiter plates were coated with 1 μg per milliliter of human PRLR. Plates were incubated over night at 4° C. After blocking with PBS buffer containing 3% bovine serum albumin, normalized E. coli-derived supernatants containing the Fab variants were added. Detection of formed complexes occurred via the addition of an anti-flag antibody (Sigma, A8592) labeled with horseradish peroxidase.

Row | Binder | Inhibition of phosphorylation of ERK1/2 in % at 7.5 µg/ml (ELISA, prolactin-treated T47D lysates) [1] | Inhibition of phosphorylation of PRLR in % at 7.5 µg/ml (ELISA, prolactin-treated T47D lysates) [1] | Inhibition of phosphorylation of STAT5 in % at 7.5 µg/ml (ELISA, prolactin-treated T47D lysates) [1] | Kd [4] | koff [4] | also measured
1 | B1 | 85% | 88% | 73% | – | – | –
2 | B2 | – | – | – | 2 nM | 0.0013 s⁻¹ | EC50 [2]: 0.4 nM; binding result [3]: no binding
3 | B3 | 100% | 100% | 100% | – | – | –
4 | B4 | – | – | – | 2.7 nM | 0.00054 s⁻¹ | IC50, inhibition of prolactin-activated Ba/F cell proliferation (human PRLR) [5]: 0.54 µg/ml and 3.6 nM
5 | B5 | 86% | 92% | 72% | – | – | –
6 | B6 | – | – | – | 15.8 nM | 0.0048 s⁻¹ | EC50 [2]: 1.8 nM; EC50 [3]: 1.2 nM
7 | B7 | 45% | 63% | 36% | – | – | –
8 | B8 | – | – | – | 1.8 nM | 0.0002 s⁻¹ | IC50, inhibition of prolactin-activated Ba/F cell proliferation (human PRLR) [5]: 4.8 nM and 0.72 µg/ml
9 | B9 | 100% | 100% | 98% | – | – | –
10 | B10 | – | – | – | 0.2 nM | 0.00017 s⁻¹ | EC50 [2]: 0.3 nM; binding result [3]: no binding
11 | B11 | – | – | – | – | – | binding result [6]: binds
12 | B12 | – | – | – | – | – | binding result [6]: binds
13 | B13 | – | – | – | – | – | binding result [6]: binds

Reference: patent publication US20130129739A1 (Bayer, published 2013)
